Holding throughout (test): purified protein
Holding throughout (assay type): biochemical, uncultured Sphingomonas sp.

Data set [1] deals with T1, CCCCCCCCCCCC(=O)Oc1ccc([N+](=O)[O-])cc1.
T1 construct: full length, 324 residues, N-terminal His6 tag (p15TV-L), expressed in E. coli BL21(DE3), Ni-NTA purified; homodimer
The following applies: 50 mM potassium phosphate pH 7.0, 0.3% Triton X-100, 30 °C, up to 7.5% DMSO-acetonitrile.

For data set [2], the system named is T2, CC(=O)Oc1ccc([N+](=O)[O-])cc1.
T2 construct: full length, 324 residues, N-terminal His6 tag (p15TV-L), expressed in E. coli BL21(DE3), Ni-NTA purified; homodimer
Particulars: 50 mM potassium phosphate pH 7.0, 0.3% Triton X-100, 30 °C, up to 5% DMSO-acetonitrile.

The subject of data set [3] is T3, CCCC(=O)Oc1ccc([N+](=O)[O-])cc1.
T3 construct: full length, 324 residues, N-terminal His6 tag (p15TV-L), expressed in E. coli BL21(DE3), Ni-NTA purified; homodimer
Particulars: 50 mM potassium phosphate pH 7.0, 0.3% Triton X-100, 30 °C, up to 5% DMSO-acetonitrile.

Consider EH0 (uncultured Sphingomonas sp.), for which, in data set [1], the Km – broadly, the concentration of substrate that gives half-maximal velocity – worked out at 1000 ± 280 µM; the Vmax (in general, the rate approached at saturating substrate) turned out to be 25.6 µM/min; the kcat (usually the number of substrate molecules converted per active site and unit of time at saturation) worked out at 0.0608 ± 0.00433 s⁻¹; the kcat/Km (as a rule, the second-order rate constant that governs catalysis at low substrate concentration) came to 61 M⁻¹ s⁻¹. Moreover, in data set [2], the Km amounted to 1610 ± 120 µM, the Vmax stood at 292 µM/min, the kcat is 0.694 ± 0.0182 s⁻¹ and the specificity constant (kcat/Km) turned out to be 430 M⁻¹ s⁻¹. For the same substance, in data set [3], the Km is 1080 ± 180 µM, the Vmax was determined as 253 µM/min, the kcat amounted to 0.602 ± 0.033 s⁻¹ and the specificity constant (kcat/Km) is 558 M⁻¹ s⁻¹.

For the origin of these results see PMC9888213, “The Mobility of the Cap Domain Is Essential for the Substrate Promiscuity of a Family IV Esterase from Sorghum Rhizosphere Microbiome” (Applied and Environmental Microbiology, 2023).
